Experimental data: patent US7863432 (FORSCHUNGSVERBUND BERLIN E V, dated 2011)

Target: T1, RIIα-YFP fusion protein (regulatory subunit RIIα of human protein kinase A fused to yellow-fluorescent … (human, UniProt P13861 2-404))
T1 construct: whole, on cells; Expressed inside transfected HEK293 or CD8 cells (diffuse, cytosolic); also called regulatory RIIα subunit of PKA; not shown: yellow-fluorescent protein (YFP) encoded by vector pEYFP (BD Biosciences Clontech)
Test: FRET in two co-transfected HEK293 cells, time 0 min before peptide addition
Procedure: FRET measurements were performed 24-48 hours after transfection, using an epifluorescence microscope (Axiovert 200M, Carl Zeiss, Jena, Germany). The data were stored using the Openlab 2.25 software (Improvision, Coventry GB). Fluorescence was excited at a wavelength of 425 nm for CFP and 488 nm for YFP. […] Non-specific background fluorescence was determined in a region with no cells and subtracted.
This peptide inhibits the interaction between AKAP and regulatory PKA subunits in general (Klussmann et al., J. Biol. Chem. 274, 4934-4938, 1999; see schematic diagram in FIGS. 5A and B).

T1 sequence (P13861 2-404): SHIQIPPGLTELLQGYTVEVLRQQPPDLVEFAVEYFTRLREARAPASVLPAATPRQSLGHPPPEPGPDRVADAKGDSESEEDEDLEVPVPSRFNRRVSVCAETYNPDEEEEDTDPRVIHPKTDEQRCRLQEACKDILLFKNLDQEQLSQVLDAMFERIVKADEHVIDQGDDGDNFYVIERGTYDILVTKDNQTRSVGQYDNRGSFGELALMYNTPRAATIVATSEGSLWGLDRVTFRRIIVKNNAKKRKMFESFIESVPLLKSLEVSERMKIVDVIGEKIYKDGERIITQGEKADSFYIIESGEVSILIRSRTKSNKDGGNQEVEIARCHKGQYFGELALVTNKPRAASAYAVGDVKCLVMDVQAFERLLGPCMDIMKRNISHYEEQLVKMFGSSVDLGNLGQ

535/480 ratio (FRET signal) prior to addition of S-Ht31: ~1.3
B1: AKAP18δ-CFP fusion protein (other)
chain: MERPAAGEIDANKCDHLSRGEEGTGDLETSPVGSLADLPFAAVDIQDDCGLPDVPQGNVPQGNPKRSKENRGDRNDHVKKRKKAKKDYQPNYFLSIPITNKKITAGIKVLQNSILRQDNRLTKAMVGDGSFHITLLVMQLLNEDEVNIGTDALLELKPFVEEILEGKHLTLPFHGIGTFQGQVGFVKLADGDHVSALLEIAETAKRTFQEKGILAGESRTFKPHLTFMKLSKAPMLWKKGVRKIEPGLYEQFIDHRFGEEILYQIDLCSMLKKKQSNGYYHCESSIVIGEKDRKEPEDAELVRLSKRLVENAVLKAVQQYLEETQNKKQPGEGNSVKAEEGDRNGDGSDNNRK
notes: Expressed inside transfected HEK293 or CD8 cells (diffuse, cytosolic); also called AKAP186; AKAP188; not shown: cyan-fluorescent protein (CFP) encoded by vector pECFP (BD Biosciences Clontech)
